The values that follow come from patent publication US20020143164A1, “Ras activator nucleic acid molecules, polypeptides and methods of use” (priority 1999, published 2002).

The test system of test [1] is Ras. The experiment in a line: In vitro GEF assay (32P-α-GTP binding to Ras). The class given is biochemical. On the procedure:
Full length (GRF4) or CDC25-deleted (ΔCDC25) GRF4, or GRF2, each Flag-tagged, were immunoprecipitated from transfected Hek-293T cells using anti Flag antibodies. Equal amounts of immunoprecipitates were washed with GEF lysis buffer, equilibrated with GEF assay buffer and incubated with 32P-α-GTP (diluted in cold GTP) plus 100 ng of Ras for 30 min. Bound and unbound radiolabelled GTP were then separated by filtration, and the amount of bound GTP determined by scintillation counting, as detailed in the Method section. Fold Ras activation was compared to the activation of Ras in the absence of GRFs (which was set to 1).
GRF4 has a RasGRF(GEF) activity/function. To show its GEF activity, we performed in-vitro GEF assays. Briefly, GST-Ras was added alone (tubes 1 and 2) or along with GST-CDC25, or immunoprecipitated full-length of GRF4 (tubes 3 and 4). All tubes contained assay mixture including cold GTP and P32 alpha GTP. The exchange reactions were stopped at the indicated times. The stopped reaction mixtures were passed through nitrocellulose filters which were then washed with stop buffer to separate bound and unbound nucleotides. Filters were dried and then quantified by scintillation counting to determine bound CPM. The labeled nucleotides trapped on the washed filters were assumed to be Ras-associated. The difference in bound CPM over 30 minute period was determined for reactions where GST-Ras was added alone (it is the difference in bound CPM between tubes 1 and 2) and where GST-Ras was added with a GEF (it is the difference in bound CPM between tubes 3 and 4).

For another test, the system named is Rap1. The experiment in a line: Rap1 activation assay in living cells (GST-RalGDS-RBD pull-down). The test is classed as cell-based, human. Particulars: HEK-293T cells, via CDC25 domain. On the procedure: (§1) HEK-293T cells were transfected as above, serum starved overnight and then subjected to various treatments, as described in the text. Cells were lysed with lysis buffer (25 mM Hepes, pH 7.5, 150 mM NaCl, 1% NP-40, 0.25% Na deoxycholate, 10% glycerol, 25 mM NaF, 10 mM MgCl2, 1 mM EDTA, 1 mM NaVO4, 10 mg/ml leupeptin, 10 mg/ml aprotinin, 250 mM PMSF) and the level of Ras.GTP or Rap. GTP in the lysates was determined using activation specific probes as described. Briefly, to determined the levels of active Ras (Ras-GTP) in cell, sepharose-bound GST fusion protein of the Ras-binding domain (RBD) of Raf-1 (GST-Raf1-RBD; Upstate Biotechnology Inc.) was used to precipitate Ras-GTP from cell lysates, and the amount of Ras-GTP determined by immunoblotting with anti Ras antibodies (Quality Biotech). Similarly, to determine the level of Rap1-GTP in cell lysates, sepharose-bound GST fusion proteins of the Rap1-binding domain of RaIGDS (GST-RaIGDS-RBD) were used to precipitate Rap1-GTP, which was then detected on a Western blot using anti-Rap1 antibodies (Transduction Lab).

For test [2], the system named is Ras. Kind of test: In vitro pull-down of GRF4 with GST-Ras of different nucleotide-bound states. The class given is binding. Particulars: lysates of 293T cells with Flag-tagged GRF4, GST-Ras beads. The text has this: Beads were washed and resolved on SDS-PAGE and subsequently immunoblofted with anti-Flag antibodies to detect Flag-tagged GRF4. […] However, it bound to Ras differentially, depending on the nucleotide-bound states of Ras.

The subject of the next test is Rat 2 fibroblasts. The experiment in a line: Transformation assay (foci formation). The test is classed as cell-based. As to conditions: transient transfection, cultured three weeks. On the procedure: Transformation assays were performed using Rat 2 fibroblasts, a suitable cell type for this assay. Rat 2 cells were transiently transfected with empty vector, GRF4 construct, or mutant RasV12 construct (a transforming form of Ras used as a positive control). After transfection, cells were cultured over a period of three weeks with routine changes of media, and were routinely examined for morphology changes under a light microscope.

In a further test the target is T1, GRF4-cNMP-BD (Homo sapiens, UniProt Q9Y4G8).
T1 construct: The GST-GRF4-cNMP-BD (residue 101-303); made in house
T1 sequence (Q9Y4G8 101-303): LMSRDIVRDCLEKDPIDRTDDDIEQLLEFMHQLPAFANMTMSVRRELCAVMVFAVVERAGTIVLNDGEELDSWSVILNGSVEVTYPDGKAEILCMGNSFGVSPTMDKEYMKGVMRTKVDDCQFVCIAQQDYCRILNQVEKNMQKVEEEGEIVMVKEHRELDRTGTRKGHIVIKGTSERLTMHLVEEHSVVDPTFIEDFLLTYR
Kind of test: cAMP-agarose binding assay. Particulars: cAMP agarose beads, anti GRF4 immunoblot. On the procedure: Right and left panels in (b) represent two separate experiments.
Following extensive washes in HNTG (20 mM Hepes, pH 7.5, 150 mM NaCl, 0.1% Triton ×100, 10% Glycerol) proteins were eluted off beads with sample buffer, separated on SDS-PAGE and immunoblotted with either anti GST antibodies for the in vitro binding experiments, or with anti GRF4 antibodies for the pull down experiments.
(Immunoblotting shows a protein as a band on a membrane.)

Test [3] relates to Ras. Kind of test: Ras activation assay in living cells, GRF4 and deletion mutants expressed in HEK-293T cells. The class given is cell-based, human. As to conditions: HEK-293T cells, no cNMP stimulation. On the procedure: HEK-293T cells were transfected with vector alone, GRF4 (WT), GRF4 lacking its cNMP-BD (ΔcNMP-BD) or its CDC25 domain (ΔCDC25), and then treated (or not) with 8-Br-cAMP. Cell lysates were then incubated with GST-Raf1-RBD to precipitate active Ras, and immunobloited with anti Ras antibodies as above (upper panel). Lower panels are controls for total endogenous Ras and transfected GRF4 or its mutants.
Flag, HA or myc tags was added to the N-terminus of full length GRF4 using PCR, and subcloned into the mammalian expression vector pCMV5 (Invitrogen). Mutants GRF4 with deletion of the CDC25 domain (residue 711-1007, GRF4DCDC25 or DCDC25 for short), the cNMP-BD (residue 134-254, DcNMP-BD), the PLPF motif in the PDZ domain (residue 396-399, -PLPF), or bearing mutations in the PDZ-binding motif (SAV to AAA), were generated using PCR. The GST-GRF4-cNMP-BD (residue 101-303) and GST-Carboxy-terminus (residue 1348-1499) were PCR-generated and cloned into pGEX-2T ( Pharmacia). The latter construct was used to generate a fusion protein (GST-GRF4C terminus) which was used to immunize rabbits for the generation of polyclonal anti GRF4 antibodies.
as §1, with “Cells were lysed with lysis buffer (25 mM Hepes, pH 7.5, 150 mM NaCl, 1% NP-40, 0.25% Na deoxycholate, 10% glycerol, 25 mM NaF, 10 mM MgCl2, 1 mM EDTA, 1 mM NaVO4, 10 mg/ml leupeptin, 10 mg/ml aprotinin, 250 mM PMSF) and the level of Ras.GTP or Rap.” left out

B1: GRF4: Ras guanine nucleotide exchange factor polypeptide, SEQ ID NO: 2, 1499 amino acids (protein, listed as Homo sapiens)
chain: MKPLAIPANHGVMGQQEKHSLPADFTKLHLTDSLHPQVTHVSSSHSGCSITSDSGSSSLSDIYQATESEAGDMDLSGLPETAVDSEDDDDEEDIERASDPLMSRDIVRDCLEKDPIDRTDDDIEQLLEFMHQLPAFANMTMSVRRELCAVMVFAVVERAGTIVLNDGEELDSWSVILNGSVEVTYPDGKAEILCMGNSFGVSPTMDKEYMKGVMRTKVDDCQFVCIAQQDYCRILNQVEKNMQKVEEEGEIVMVKEHRELDRTGTRKGHIVIKGTSERLTMHLVEEHSVVDPTFIEDFLLTYRTFLSSPMEVGKKLLEWFNDPSLRDKVTRVVLLWVNNHFNDFEGDPAMTRFLEEFENNLEREKMGGHLRLLNIACAAKAKRRLMTLTKPSREAPLPFILLGGSEKGFGIFVDSVDSGSKATEAGLKRGDQILEVNGQNFENIQLSKAMEILRNNTHLSITVKTNLFVFKELLTRLSEEKRNGAPHLPKIGDIKKASRYSIPDLAVDVEQVIGLEKVNKKSKANTVGGRNKLKKILDKTRISILPQKPYNDIGIGQSQDDSIVGLRQTKHIPTALPVSGTLSSSNPDLLQSHHRILDFSATPDLPDQVLRVFKADQQSRYIMISKDTTAKEVVIQAIREFAVTATPDQYSLCEVSVTPEGVIKQRRLPDQLSKLADRIQLSGRYYLKNNMETETLCSDEDAQELLRESQISLLQLSTVEVATQLSMRNFELFRNIEPTEYIDDLFKLRSKTSCANLKRFEEVINQETFWVASEILRETNQLKRMKIIKHFIKIALHCRECKNFNSMFAIISGLNLAPVARLRTTWEKLPNKYEKLFQDLQDLFDPSRNMAKYRNVLNSQNLQPPIIPLFPVIKKDLTFLHEGNDSKVDGLVNFEKLRMIAKEIRHVGRMASVNMDPALMFRTRKKKWRSLGSLSQGSTNATVLDVAQTGGHKKRVRRSSFLNAKKLYEDAQMARKVKQYLSNLELEMDEESLQTLSLQCEPATNTLPKNPGDKKPVKSETSPVAPRAGSQQKAQSLPQPQQQPPPAHKINQGLQVPAVSLYPSRKKVPVKDLPPFGINSPQALKKILSLSEEGSLERHKKQAEDTISNASSQLSSPPTSPQSSPRKGYTLAPSGTVDNFSDSGHSEISSRSSIVSNSSFDSVPVSLHDERRQRHSVSIVETNLGMGRMERRTMIEPDQYSLGSYAPMSEGRGLYATATVISSPSTEELSQDQGDRASLDAADSGRGSWTSCSSGSHDNIQTIQHQRSWETLPFGHTHFDYSGDPAGLWASSSHMDQIMFSDHSTKYNRQNQSRESLEQAQSRASWASSTGYWGEDSEGDTGTIKRRGGKDVSIEAESSSLTSVTTEETKPVPMPAHIAVASSTTKGLIARKEGRYREPPPTPPGYIGIPITDFPEGHSHPARKPPDYNVALQRSRMVARSSDTAGPSSVQQPHGHPTSSRPVNKPQWHKPNESDPRLAPYQSQGFSTEEDEDEQVSAV
For the molecule B1, the “In vitro GEF activity on Ras” value in the test on Ras [1] is “active on Ras”. Also, the “Fold Ras activation in vitro (activation without GRFs set to 1)” value with Ras [1] (immunoprecipitated Flag-tagged protein, 100 ng Ras, 30 min) is ~2.9 fold. In addition, the “Activation of Rap1 in cells” value in the test with Rap1 is on record as “mediates activation of Rap1”. Further, in the test on Ras [2], the “Binding to EDTA-treated Ras (nucleotide-free)” value is “bound strongly”, the “Binding to Ras-GDP” value is recorded as “bound weakly” and the “Binding to Ras-GTP” value was “bound strongly”. Further, the “Foci formation / transformed phenotype of transfected cells” value in the test with Rat 2 fibroblasts is listed as “induced foci formation”. Besides, the “Precipitation by immobilized cAMP from lysates of expressing HEK-293T cells” value with GRF4-cNMP-BD is reported as “able to precipitate”. In addition, in the test on Ras [3], the “Activation of endogenous Ras by heterologous expression” value was “weak activation”.
